Consider four molecules from patent publication US20260226143A1 (OTHAIR PROTHENA, published 2026).

Experiment [1] concerns the target T1, recombinant Aβ1-42 fibrils (human).
T1 construct: Fibrils made from HFIP-treated Aβ1-42 (DMSO, 10 mM HCl, 37 C, 24 h; pellet resuspended and sonicated); also called fibril Aβ42; fibril Aβ
The experiment is described as follows: direct ELISA on plate-coated Aβ fibrils, antibody titrated. How it is done:
(§1) Plates were blocked 1% BSA/PBS for 1 hour. […] Plates were washed four times with TBS/Tween 20 and 100 μl of goat anti Human IgG HRP (Jackson ImmunnoResearch Laboratories, Inc, West Grove, PA or Invitrogen, Carlsbad, CA) at 1/5000 dilution was added to each well and incubated 1 hour at room temperature. Plates were wash six times in TBS/Tween 20, and Thermo Fisher o-phenylenediamine dihydrochloride (OPD) tablets and ThermoFisher substrate buffer were prepared per manufacturer's instructions. 100 μl of substrate was added and incubated 15 min. Reaction was stopped with 50 μl H₂SO₄. Plates were read at 490 nm on a molecular devices spectromax. FIG. 9A, and FIG. 21. For FIG. 21, curves and resulting EC₅₀ estimations represent nonlinear three-parameter least squares fit of the data (data shown in Table 7).

The target of experiment [2] is T2, aggregated Aβ42 (heterogeneous Aβ 42 aggregate mixture) (human).
T2 construct: Aβ 42 vortexed in water and kept on a nutator for 48 h at room temperature, then coated on plates; also called Aβ aggregates; heterogeneous aggregated Aβ42 species
T2 sequence (peptide, as listed by the source): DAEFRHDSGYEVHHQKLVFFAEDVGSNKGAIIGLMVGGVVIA
Kind of experiment: competition ELISA, plate coated with aggregated Aβ42; competitor biotinylated hBP. As for the experimental part:
One mg of Aβ 42 was added to 1 ml of diH2O and was vigorously vortexed and placed on a nutator for 48 hours at room temperature. Plates were coated with 0.5 mg/ml of the heterogeneous Aβ 42 aggregate mixture and blocked, e.g., with 1% BSA/PBS. […] 100 ul of GE Streptavidin HRP diluted 1/10,000 was then added and incubated for 30 minutes. Plates were washed six times with TTBS. Thermo Fisher o-phenylenediamine dihydrochloride (OPD) substrate was prepared fresh per manufacturers direction, and 100 μl per well was added. The reaction was incubated for 15 minutes and the reaction stopped with 50 ul 2N H₂SO₄. […] For FIG. 20A and FIG. 20B, curves and resulting IC₅₀ estimations represent nonlinear three-parameter least squares fit of data. Individual points are the average of triplicate samples (coefficient of variation <20%).
(An ELISA detects its analyte on a solid surface through an enzyme-linked reagent.)

For another experiment, the target named is soluble Aβ oligomers (human, partly biotinylated (unlabeled, biotinylated or 9:1 unlabeled:biotinylated preparations)). The experiment is described as follows: cell-based or functional assay.
Sequence of soluble Aβ oligomers (human, partly biotinylated (unlabeled, biotinylated or 9:1 unlabeled:biotinylated preparations)) (peptide, as listed by the source): as above
In experiment [3] the target is T1, recombinant Aβ1-42 fibrils. The experiment is described as follows: direct ELISA, fibril Abeta plate coat titrated, antibody held constant at 2 ug/ml; unit from the axis 'log ng/ml Abeta' [right panel]. As for the experimental part:
Plates were blocked 1% BSA/PBS 1 hour. Antibodies at 2 μg/ml in 0.1% BSA/PBS 0.1% Tween 20 were added in duplicate to the appropriate wells and incubated for 2 hrs at room temperature. Plates were washed 4× with TBS/Tween 20 and then 100 μl of Jackson Goat anti Human IgG HRP 1/5000 dilution was added to each well and incubated 1 hour at room temperature. Plates were wash six times in TBS/Tween 20, and Thermo Fisher o-phenylenediamine dihydrochloride (OPD) tablets and Thermofisher substrate buffer were prepared per manufacturer's instructions. 100 μl of substrate was and incubated 15 min. Reaction was stopped with 50 μl H₂SO₄. Plates were read at 490 nm on a molecular devices spectromax. FIG. 9B, right panel.

Experiment [4] deals with T1, recombinant Aβ1-42 fibrils. Kind of experiment: direct ELISA on plate-coated Aβ fibrils; the low end falls to h2831 by the EC50 values of Table 7. How it is done: as §1
Experiment [5] addresses T1, recombinant Aβ1-42 fibrils. Kind of experiment: direct ELISA on plate-coated Aβ fibrils; the high end falls to h2726 by the EC50 values of Table 7. How it is done:
as §1

Numbering of substitutions follows the chain as printed.

T1 sequence (peptide, as listed by the source): as above

B1: h2731 (antibody, human IgG1, kappa, V domains shown)
VH: EVQLLESGGGLVQPGGSLRLSCAASGFTFSNYGMSWVRQAPGKGLEWVASIRSGSGRTYYSDNVKGRFTISRDNSKNTLYLQMNSLRAEDTAVYYCVRYDHYSGSSDYWGQGTLVTVSS
VL: DVVMTQSPLSLPVTLGEPASISCKSSQSLLDYDGKTYLNWLLQKPGQSPQRLIYRVTNRDTGVPDRFSGSGSGTDFTLKISRVEAEDVGVYYCWQGTHFPRSFGQGTKVEIKR
notes: Heavy chain with or without the C-terminal lysine
Broadly, the EC50 is the midpoint of the concentration-response curve. Usually IC50 stands for the point on the concentration scale where inhibition reaches its midpoint. In the case of B1, the concentration for a half-maximal effect (EC50) in experiment [1] was 0.0367 µg/mL. In addition, the half-inhibitory concentration (IC50) in experiment [2] worked out at 5.02 µg/mL. In addition, the “IC50 of the reduction of Abeta spots per neuron (% Abeta control, normalized to untreated Abeta)” value with soluble Aβ oligomers stood at 0.47 µg/mL.

B2: h2831 (antibody, V domains shown)
VH: B1 VH with Y32F, I51V, S105T
VL: DVVMTQSPLSLPVTLGEPASISCKSSQSLLDYDGKTYLNWLLQKPGQSPQRLIYRVTNRDTGVPDRFSGSGSGTDFTLKISRVEAEDVGVYYCWQGTHFPRSFGQGTKVEIK
notes: Humanized IgG; only variable domains tied to the name; also called PB-0575
As for B2, in experiment [3], the “IC50 (as headed in the table; half-maximal concentration of the Abeta fibril coat)” value was 0.412 µg/mL. Further, in experiment [1], the EC50 was found to be 0.0489 µg/mL. Besides, the IC50 in experiment [2] was determined as 9.91 µg/mL. Also, in the experiment with soluble Aβ oligomers, the “IC50 of the reduction of Abeta spots per neuron (% Abeta control, normalized to untreated Abeta)” value is 0.924 µg/mL and the “Total Area (area under the curve of % Abeta control against mAb concentration)” value is 6500. The “fold lower estimated EC50 than aducanumab” value in experiment [4] is 15 to 20 fold.

B3: h2726 (antibody, V domains shown)
VH: B1 VH
VL: B2 VL with L15P, R55K, T57S, T61S, S102T
notes: Humanized IgG; also called PB-0573
Regarding B3, the “IC50 (as headed in the table; half-maximal concentration of the Abeta fibril coat)” value in experiment [3] is 0.387 µg/mL. In addition, the half-maximal effective concentration (EC50) in experiment [1] came out at 0.0359 µg/mL. In experiment [2], the IC50 was found to be 9.05 µg/mL. Moreover, in the experiment with soluble Aβ oligomers, the “IC50 of the reduction of Abeta spots per neuron (% Abeta control, normalized to untreated Abeta)” value came to 1.67 µg/mL and the “Total Area (area under the curve of % Abeta control against mAb concentration)” value came out at 9070. Besides, in experiment [5], the “fold lower estimated EC50 than aducanumab” value is 15 to 20 fold.

B4: h2931 (antibody, V domains shown)
VH: B1 VH with Y32F, I51V, S103T, S105T
VL: B2 VL
notes: Humanized IgG; only variable domains tied to the name; also called PB-0576
With B4, the “IC50 (as headed in the table; half-maximal concentration of the Abeta fibril coat)” value in experiment [3] is 0.335 µg/mL. Further, in experiment [1], the EC50 was 0.0449 µg/mL. The half-maximal inhibitory concentration (IC50) in experiment [2] is 6.9 µg/mL. In the experiment with soluble Aβ oligomers, the “IC50 of the reduction of Abeta spots per neuron (% Abeta control, normalized to untreated Abeta)” value is 0.627 µg/mL and the “Total Area (area under the curve of % Abeta control against mAb concentration)” value stood at 8480.
